Measured values: patent US20190367619A1 (ARGENX, published 2019)

T1: TEV-cleaved wild-type recombinant human galectin-10 (soluble, in Fab complexes, or as recombinant galectin-10 … (human, UniProt Q05315 1-142))
T1 sequence: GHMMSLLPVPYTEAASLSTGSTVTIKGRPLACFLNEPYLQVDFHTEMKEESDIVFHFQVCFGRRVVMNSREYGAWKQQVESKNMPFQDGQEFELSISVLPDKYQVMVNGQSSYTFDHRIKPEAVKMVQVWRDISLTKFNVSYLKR

T2: human galectin-10-His (recombinant human galectin-10 with TEV-cleavable N-terminal His-tag) (human)
T2 construct: SEC-MALLS: dimer in solution; also called Gal10-His; humanGal10-His
T2 chain: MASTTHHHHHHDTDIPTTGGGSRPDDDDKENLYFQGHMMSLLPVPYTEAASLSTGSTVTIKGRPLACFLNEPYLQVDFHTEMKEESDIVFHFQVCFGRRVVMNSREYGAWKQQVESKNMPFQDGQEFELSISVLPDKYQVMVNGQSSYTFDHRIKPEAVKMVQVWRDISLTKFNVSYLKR

T3: recombinant human galectin-10, TEV-cleaved (human, UniProt Q05315 1-142)
T3 sequence: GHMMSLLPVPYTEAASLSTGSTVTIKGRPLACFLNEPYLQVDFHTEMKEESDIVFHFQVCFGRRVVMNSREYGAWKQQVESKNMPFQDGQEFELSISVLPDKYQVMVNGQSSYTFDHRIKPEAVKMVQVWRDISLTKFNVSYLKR

T4: human galectin-10-His (human)
T4 construct: The last M of the tag may be Met1 of galectin-10; also called humanGal10-His; hGal10
T4 chain: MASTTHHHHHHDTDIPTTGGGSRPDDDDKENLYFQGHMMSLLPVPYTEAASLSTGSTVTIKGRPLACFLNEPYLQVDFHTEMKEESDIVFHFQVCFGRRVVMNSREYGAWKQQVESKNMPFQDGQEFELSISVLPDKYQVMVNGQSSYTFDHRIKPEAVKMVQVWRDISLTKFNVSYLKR

T5: cynomolgus galectin-10-His, WGS isoform (cynomolgus)
T5 construct: also called cynoGal10-WGS; not shown: His tag
T5 chain: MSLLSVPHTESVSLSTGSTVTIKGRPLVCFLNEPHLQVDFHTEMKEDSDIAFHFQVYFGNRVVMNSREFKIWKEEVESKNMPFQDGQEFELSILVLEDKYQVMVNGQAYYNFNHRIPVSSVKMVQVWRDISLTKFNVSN

T6: cynomolgus galectin-10-His, YRT isoform (cynomolgus)
T6 construct: also called cynoGal10-YRT; not shown: His tag
T6 chain: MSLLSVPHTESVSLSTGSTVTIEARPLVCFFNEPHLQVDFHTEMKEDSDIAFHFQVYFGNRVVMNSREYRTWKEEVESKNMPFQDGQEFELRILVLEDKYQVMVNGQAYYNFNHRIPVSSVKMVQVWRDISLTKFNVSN


Assays:
[1] = target: T1, TEV-cleaved wild-type recombinant human …; assay: cell-based or functional assay
[2] = target: T2, human galectin-10-His (recombinant …); assay: ELISA, mouse IgG1 on coated galectin-10-His (0.2 ug/mL)
Description: In a similar setup to that used during the characterization of the scFv-human Fc molecules, the relative binding affinities of the 10 mouse IgG1 antibodies were analyzed by ELISA. A Maxisorp plate was coated overnight with 0.2 μg/mL of galectin-10-His. Then a serial dilution of each clone (from 100 nM, dilution 1/4, 12 points of dilutions) was incubated on coated galectin-10. After several washing steps, detection of the bound mouse IgG1 was carried out with an anti-mouse Fc-HRP antibody. Absorbance was measured at 450 nm (reference at 620 nm) with Tecan instrument. A mouse IgG1 isotype control was used as negative control. A polyclonal anti-galectin-10 antibody was used as positive control for the coating of galectin-10. The raw data (OD values) were plotted on GraphPad Prism 7.01. The EC50 values for each antibody, calculated with a non-linear regression (log(agonist) vs. response Variable slope (four parameters)), are reported in Table 7 below.

[3] = target: T2, human galectin-10-His (recombinant …); assay: BLI tandem on galectin-10-His; competitor: saturating 1C09 mIgG1 (10 ug/mL)
Description: (§1) In order to identify the galectin-10 binding sites of the different clones, an epitope mapping method (TANDEM), using the BLI technology, was established. Briefly, the galectin-10-His was captured on anti-HIS 1K sensor tips, before incubation with an excess of one antibody (called the “saturating” antibody) then directly transferred to a solution containing the “competitor” antibody at a suboptimal concentration. If the “saturating” and the competitor antibody bind to the same binding sites, no binding of “competitor” will be detected (expressed in nm shift).

[4] = target: T2, human galectin-10-His (recombinant …); assay: BLI tandem on galectin-10-His; competitor: saturating 1D11 mIgG1 (10 ug/mL)
Description: as §1

[5] = target: T2, human galectin-10-His (recombinant …); assay: BLI tandem on galectin-10-His; competitor: saturating 2C07 mIgG1 (10 ug/mL)
Description: as §1

[6] = target: T2, human galectin-10-His (recombinant …); assay: BLI tandem on galectin-10-His; competitor: saturating 2F09 mIgG1 (10 ug/mL)
Description: as §1

[7] = target: T2, human galectin-10-His (recombinant …); assay: BLI tandem on galectin-10-His; competitor: saturating 4E08 mIgG1 (10 ug/mL)
Description: as §1

[8] = target: T2, human galectin-10-His (recombinant …); assay: BLI tandem on galectin-10-His; competitor: saturating 6A05 mIgG1 (10 ug/mL)
Description: as §1

[9] = target: T2, human galectin-10-His (recombinant …); assay: BLI tandem on galectin-10-His; competitor: saturating 6A08 mIgG1 (10 ug/mL)
Description: as §1

[10] = target: T2, human galectin-10-His (recombinant …); assay: BLI tandem on galectin-10-His; competitor: saturating 6B06 mIgG1 (10 ug/mL)
Description: as §1

[11] = target: T2, human galectin-10-His (recombinant …); assay: BLI tandem on galectin-10-His; competitor: saturating 6E10 mIgG1 (10 ug/mL)
Description: as §1

[12] = target: T2, human galectin-10-His (recombinant …); assay: BLI tandem on galectin-10-His; competitor: saturating 6F06 mIgG1 (10 ug/mL)
Description: as §1

[13] = target: T2, human galectin-10-His (recombinant …); assay: BLI tandem on galectin-10-His; isotype control as saturating antibody (10 ug/mL)
Description: as §1

[14] = target: T2, human galectin-10-His (recombinant …); assay: SPR Biacore T3000, mouse IgG1 captured by anti-mouse Fc, galectin-10-His as analyte
Description: The binding capacity of the mouse IgG1 antibodies to galectin-10 was analyzed on Biacore T3000. For this purpose, a capture approach was set up. A CM5 Chip was coated with polyclonal anti-mouse Fc at 8000 RU, then a fixed concentration of the mouse IgG1 antibody panel (1.5 μg/mL), diluted in HBS-EP pH7.4, was captured to reach a binding signal around 150 RU. Finally, a serial dilution of galectin-10-His (serial dilution, 1 over 2 from 5 μg/mL) diluted in HBS-EP pH7.4 was injected. Raw data were analyzed via BIA evaluation software with a blank subtraction (4-3). The kd/KD and Rmax of each mAb to galectin-10-His was determined using the Fit Kinetics simultaneous ka/kd/Binding with mass transfer/Local Rmax on BIA evaluation software.

[15] = target: T3, recombinant human galectin-10, …; assay: cell-based or functional assay
human galectin-10-His [16] = target: T4, human galectin-10-His; assay: ELISA, coated antigen 0.5 ug/mL
Description: (§2) In a similar setup to that used during the characterization of the scFv-human Fc molecules, the relative binding properties of the 7 mouse IgG1 antibodies were analyzed by ELISA. A Maxisorp plate was coated overnight with 0.5 μg/mL of human or cynomolgus WGS or YRT isoform of galectin-10-His. Then a serial dilution of each clone (from 100 nM, dilution 1/4, 12 points of dilutions) was incubated on coated galectin-10. After several washing steps, detection of the bound mouse IgG1 was carried out with an anti-mouse Fc-HRP antibody (DAMPO, Jackson ImmunoResearch, Catalog 715-035-150). Absorbance was measured at 450 nm (reference at 620 nm) with Tecan instrument. The raw data (OD values) were plotted on GraphPad Prism 7.01. The EC50 values for each antibody, calculated with a non-linear regression (log(agonist) vs. response Variable slope (four parameters)), are shown in the table below. Antibody 1D11 from the previous panel was included for comparison.

[17] = target: T5, cynomolgus galectin-10-His, WGS isoform; assay: ELISA, coated antigen 0.5 ug/mL
Description: as §2

[18] = target: T6, cynomolgus galectin-10-His, YRT isoform; assay: ELISA, coated antigen 0.5 ug/mL
Description: as §2

human galectin-10-His [19] = target: T4, human galectin-10-His; assay: SPR Biacore T3000, mouse IgG1 captured
Description: (§3) The binding capacity of the mouse IgG1 antibody panel to galectin-10 was analysed on Biacore T3000. For this purpose, a capture approach was used, where a fixed concentration (1.5 μg/mL) of the mouse IgG1 clone was captured by polyclonal anti-mouse Fc antibodies immobilized on CM5 Chip to reach a binding signal around 150 RU. Then a serial dilution of human and cynomolgus WGS isoform of galectin-10-His (serial dilution, 1 over 2 from 5 μg/mL) diluted in HBS-EP pH7.4 was injected. Raw data were analysed via BIA evaluation software with a blank subtraction. The kd/KD and Rmax of each mAbs to galectin-10-His was determined using the Fit Kinetics simultaneous ka/kd/Binding with mass transfer/Local Rmax on BIA evaluation software.

[20] = target: T5, cynomolgus galectin-10-His, WGS isoform; assay: SPR Biacore T3000, mouse IgG1 captured
Description: as §3

[21] = target: T3, recombinant human galectin-10, …; assay: cell-based or functional assay; remark: listed apart in the source

Binder	50% dissolution (min) of CLCs, antibody 50 uM [15] [min]	90% dissolution (min) of CLCs, antibody 50 uM [15] [min]	EC50 (human galectin-10-His [16]) [nM]	OD values (human galectin-10-His [16]) [OD]	OD values [18] [OD]	Kd (human galectin-10-His [19]) [nM]	koff (human galectin-10-His [19]) [s⁻¹]	kon (human galectin-10-His [19]) [M⁻¹ s⁻¹]	50% crystal dissolution (min), 50 uM [21] [min]	90% crystal dissolution (min), 50 uM [21] [min]	EC50 [18] [nM]	further results
6A05 mouse IgG1 (antibody, V domains shown, also called 6A05 mIgG1) VH: EVQLVESGGGLVQPGGSLRLSCAASGFTFSSYAMSWVRQAPGKGLEWVSAINSGGGWTSYVDSVKGRFTISRDNAKNTLYLQMDSLKPEDTAVYYCTKYSGPELNTQYGMDYWGKGTLVTVSS VL: NFMLTQPSAVSVSLGQTARITCQGGNFGSYYASWYQQKPGQAPVLVIYRDSGRPSGIPERFSGSSSGDTATLTISGAQAEDEADYYCQSGSSSDNTVFGGGTHLTVL												100% Solubilization of CLC (Conc uM) [1]: 10.1 µM; Bmax [2]: 1.74 OD; EC50 [2]: 0.07 nM; binding signal (nm) [3]: 0 nm; binding signal (nm) [4]: 0.04 nm; binding signal (nm) [5]: 0.01 nm; binding signal (nm) [6]: 0.01 nm; binding signal (nm) [7]: -0.03 nm; binding signal (nm) [8]: 0.05 nm; binding signal (nm) [9]: 0 nm; binding signal (nm) [10]: 0 nm; binding signal (nm) [11]: -0.03 nm; binding signal (nm) [12]: 0.02 nm; binding signal (nm) [13]: 1.02 nm; Kd [14]: 0.6 nM; koff [14]: 0.00483 s⁻¹
10D02 mouse IgG1 (antibody, V domains shown, VH and VL cloned in frame with mouse IgG1 constant domains; also called 10D02 mIgG1) VH: EVQLVESGGGLVQPGGSLRVSCAASGFTFSSYYMSWVRQAPGKGLEWVSGIVTGGGRTHYTDSVKGRFTITRDNAKNTLYLQMNSLRPEDTALYYCARVNGVVTNYDYWGQGTQVTVSS VL: QAVLTQPPSVSGSPGKTVTISCAGTSSDVGYGNYVSWYQQLPGMAPKLLIYDVNKRASGITDRFSGSKSGNTASLTISGLQSEDEADYFCASYRSPNNVVFGQGTHLTVL	26.5	58.6	3.55	2.7	2.63	1.6	0.000865	547000				EC50 [17]: 0.14 nM; OD values [17]: 3.51 OD; Kd [20]: 1.9 nM; koff [20]: 0.000912 s⁻¹; kon [20]: 477000 M⁻¹ s⁻¹
11F12 mouse IgG1 (antibody, V domains shown, VH and VL cloned in frame with mouse IgG1 constant domains; also called 11F12 mIgG1) VH: QVQLQESGGGLVQPGGSLRLSCAASGFTFSTNYMNWVRQAPGKGLEWVSGITSGGGRTYYADSVKGRFTISRDNAKNTLYLQMNSLKPEDTALYYCARTDHAWLDAWGQGTLVTVSS VL: HSAVTQPPSVSGTLGKTVTISCAGTSSDVGYGNYVSWYQHLPGTAPKLLIYAVSTRASGVPDRFSGSKSGNTASLTISGLQSEDEGDYYCASYSVRNNVVFGGGTRLTVL	21.3	42.6	4.83	2.7	3.35	0.7	0.00224	3.04e+06	65.4	> 120	0.21	
10A06 mouse IgG1 (antibody, V domains shown, VH and VL cloned in frame with mouse IgG1 constant domains; also called 10A06 mIgG1) VH: QVQLVESGGGLVQPGGSLRLSCAASGFTFGNYDMSWVRQAPGKGPEWVSDINSGGGSTYYADSVKGRFTISRDNAKNSLLLQMNSLKPEDTAVYYCATGYTGYYYWGQGTQVTVSS VL: QTVVTQEPSLSVSPGGTVTLTCGLSSGSVTSSNYPAWYQQTPGQAPRALIYSINSRHSGVPDRFSGSISGNKAALTITGAQAEDEADYYCTLYMGTGSNNVVFGGGTHLTVL	44.5	86.6	0.63	0.3	3.38	0.9	0.0101	1.17e+07	> 120	> 120	0.06	
